{
  "source": "the DeepSol protein solubility set",
  "data": [
    {"assay": "soluble on expression in E. coli; label from the status in PepcDB or PDB records", "values": [
      {"sequence": "MDQFISAFLKSASENNFQQLAKEFLPQYSALISKAGGMLSPETLTGIHKALQEGNLSDVMSQIQKAISAAENAILEVAVIGQSGTGKSSFINALRGLGHEADESADVGTVETTMCKTPYQHPKYPKVIFWDLPGTGTPNFHTDTYLDQVGFANYDFFIIISSSRFSLNDALLAQKIKDAGKKFYFVRTKVDSDLYNEQKAKPIAFKKEKVLQQIRDYCVTNLIKTGVTEPRIFLISNLDLGTFDFPELEETLLKELPGHKRHMFALLLPNISDASIELKKHFLREKIWLEALKSAAVSFIPFMTFFKGFDLPEQEQCLKDYRSYFGLDDQSIKEIAEKLGAPLADIKGELKCLDFWSLVKDNSIIAQATSAAEAFCAVKGGPESSAFQALKVYYRRTQFLNIVVDDAKHLLRKIETVNVA", "soluble on expression in E. coli": "soluble"},
      {"sequence": "MVYVAITIVRVPGPAFSYHCPDFVRLYIEAMGYSPTIAPARIRVWRNAITEQGFVAVCAIDDSSDNPAAIGEGIVGIGYGFTGRSEHWWDQQIHRGLAEQKCPPVARPYFELAELHVSPRAQGQGIGRSLLHALIKHCGHELILLSTPEVPDEKNAAFHLYRSCGFDDLLRNFMFEGDRRPFAVLQRKAHRN", "soluble on expression in E. coli": "not soluble"},
      {"sequence": "MGSDKIHHHHHHMERVLIIGALTFVGYHLVNKMIAEEVEVYGLDFDEFDSMTKINEEKLLLIGRNALFTYYSIRDEDGWRSVEEEKFDAVYFCLYEPNQQRGFRNERVILQYLKRMIRLCEEHKVKLNLISSIEVGNADESENKRLFSKVEEGLKKGEVQYSVFRVPTLYGPWQPSFMMYHQLMLSELGEKECHYAGEENGSDLLYVEDVCEYLWENGMNEEHLGIYNLLSGKKSLWKKGMNLLRAEDKVNKENAEERDGAAEDILIKRNTPLEYGLNKQLAHMKKYKELYEG", "soluble on expression in E. coli": "not soluble"},
      {"sequence": "MGSDKIHHHHHHMSYLLRKPQSHEVSNGVKLVHEVTTSNSDLTYVEFKVLDLASGSSYTEELKKQEICIVAVTGKITVTDHESTFENIGTRESYFERKPTDSVYISNDRAFEITAVSDARVALCYSPSEKQLPTKLIKAEDNGIEHRGQFSNKRTVHNILPDSDPSANSLLVVEVYTDSGNWSSYPPHKHDQDNLPEESFLEETYYHELDPGQGFVFQRVYTDDRSIDETMTVGNENVVIVPAGYHPVGVPDGYTSYYLNVMAGPTRKWKFYNDPAHEWILER", "soluble on expression in E. coli": "not soluble"},
      {"sequence": "EKGLEIAQERKARDEGWGDSIATMEMILKNAQGESSTRLMRLKSLEVEGDGDKGLTIFDQPRDVTGTAFLNHSHTIGADDQWLYLPALKRVKRISSRNKSGPFMGSEFAYEDLSSFEIEKYRFNHLKDEKFNGQDVFVLEQIPTDKNSGYTKQVVWLDKAHYRPLKVEFYDRKGALLKTLTFANYKQYLDKYWRAHTMAMTNHQTGKSTELNTSDLRFQTGLEENDFNKNVLKR", "soluble on expression in E. coli": "soluble"},
      {"sequence": "MENILEVNQIKKYYKIKTGLLQKTQYVKAVDDVSFSIKKGQTFGLVGESGCGKSTLGKVIIRLEDATSGSIIVNGEDITRLQGKKLRKSRQQYQMIFQDPYASLNPMQMVGDIISEPILNYKKLPKEEIKKEVLYLLKCVGLSEDAYYKYAHEFSGGQRQRVGIARALALRPSLIVADEPVSALDVSVQSQVLNLLKDLQEQFNLSYLFIAHDLSVVKHISDVIGVMYLGHIVEIASDKEIYENPKHPYTKALISSIPQIDKHNNNRIILKGELPSPSNPPQGCPFHTRCPIAQDMCKKSMPELKDIGNEHQVACFYVDKVGDLND", "soluble on expression in E. coli": "not soluble"},
      {"sequence": "MGSDKIHHHHHHMFDTLASLGRDLQARETLNACLDRVFRDVCAQGFQSLVYDYAPVPLSMEGALITPSVFLQRNAPDDMHNVWCEHGYYQNDPVQQRATRRTTPFVWSYRTEGRTEGRTEGVEYVGDQHRQVTRYLCDSDMGTGVTVPLHLPGGAFATFSAAVNATQAEAPRLAEAQLPPFLLLAHAFQARAQELLDPQERRCHHIALTRRERECLQYSAKGMTAKSIAATLNRSTATVNLHLNSAARKLGARNRVEAVVRGMHYRLLEL", "soluble on expression in E. coli": "not soluble"},
      {"sequence": "MGSDKIHHHHHHMTTKLDQLTSWLKERKITEVECLISDLTGIARGKISPTNKFIAEKGMRLPESVLLQTVTGDYVEDDIYYDLLDPADIDMVCRPDENAVFLVPWAIEPTAMVIHDTFDKLGNPIELSPRNILKRVLKMYADKGWRPIVAPEMEFYLTKRSDDPDYPLQAPVGRSGRQETGRQSFSIDAANEFDPLFEDMYDWCEAQGLDLDTLIHEEGTAQMEINFRHGDALDLADQILVFKRTMREAALKHNVAATFMAKPMTGEPGSAMHLHQSIVDVKTGKNIFSNADGTMSELFLHHIGGLQKFIPEVLPLFAPNVNSFRRFLPDTSAPVNVEWGEENRTVGLRVPDSSPENRRVENRLAGADANPYLALAASLLCGYIGMVEGIKPSAQVKGRGYERRNLRLPLTIEAALERMENCKPLEQYLGSKFISGYVAVKRAEHENFKRVISSWEREFLLLSV", "soluble on expression in E. coli": "not soluble"},
      {"sequence": "MVFFNRNKIMNKDSTQTWGLKRDITPCFGARLVQEGHRLHFLADRAGFTGSFSEVQTLQLDEAFPHFVAHLELMLLSCELNPRYAHCVTLYRNGLTGEADTLGSHGYVYIAILNRHGFNRHLRVILEHHHHHH", "soluble on expression in E. coli": "not soluble"},
      {"sequence": "MAFGVSHPVALDLEATSTDPSEAEVLEVAAVDGEGRVFHRYLATQRPLPPDHEVFQLTGIPYEEYEAKKVAPKEALEELLAFLGGRPLLGHNLLRYDLPLLQRHLEEAGLPRWQGEALDTLRLAHLLFPTPPGGLEGYRLGDLYAFLLGRPLEGAHRALNDAQATLAVFHRLLDRGRRALAQHPGLVRAWRELGLPEGHLFPEDEGLIKDLLAREADVEAFFVEKEGRPFPAPTDLGPDLLPKPRPAQRIKEFVQVAHGVAGQGLVGRERPLHEVLERGLRLAVGEAEEGAVEKEG", "soluble on expression in E. coli": "soluble"},
      {"sequence": "GPGSMHDLVADDSQDGDNEVISSEVPLNKHAGDEEATRTSTFKYKKGILINQGYEFDGSSTTCAEVPASAWGSNITGDEEATTTSYVRVYVLVSSQAALKELALPPVGSKGASGVPHATGYVPLTAATRAILGANMENCGW", "soluble on expression in E. coli": "not soluble"},
      {"sequence": "MLQPPKIVAELSANHNQDLNLAKESLHAIKESGADFVKLQTYTPSCMTLNSKEDPFIIQGTLWDKENLYELYQKASTPLEWHAELFELARKLDLGIFSSPFSSQALELLESLNCPMYKIASFEIVDLDLIEKAARTQKPIILSSGIATHTELQDAISLCRRVNNFDITLLKCVSAYPSKIEDANLLSMVKLGEIFGVKFGLSDHTIGSLCPILATTLGASMIEKHFILNKSLQTPDSAFSMDFNGFKSMVEAIKQSVLALGEEEPRINPKTLEKRRFFARSLFVIKDIQKGEALTENNIKALRPNLGLHPKFYKEILGQKASKFLKANTPLSADDIERSLLEHHHHHH", "soluble on expression in E. coli": "not soluble"},
      {"sequence": "MGSDKIHHHHHHMTDYFSYLGLQPSREELIQRFGLELDKLMTLDLNLTGRPSYLYSRERNGSGEASSTAFAQLLLDSLASKDVSILVTGWPVRSSIDVSIGEADGPIGAAAIARALHMTTGAVSLAMAPAPLAAQVAAAFRSAGATIIDFDAFERLSKGNERLFGVAIVGLDVDCDLSNYFAELLQNVKPKTVIAIEHYGFSAEGKPYHGTGNVVEPGTALTHPLFDQAMAEGLICGSCVDNPNEVGTSRLHDAGVKHPPMRNDFANLLVGSSANSAAFALCAALAGLSATPTAAFPGSLDEAGIAATLAHGAIDPFSGTADPSFGVDTIESPYHAWIADLMGRLAKGYCVAAATERHL", "soluble on expression in E. coli": "not soluble"},
      {"sequence": "SSGRSVRAETRSRAKDDIKKVMAAIEKVRKWEKKWVTVGDTSLRIFKWVPVTDSKEKEKSKSNSSAAREPNGFPSDASANSSLLLEFQDENSNQSSVSDVYQLKVDSSTNSSPSPQQSESLSPAHTSDFRTDDSQPPTLGQEILEEPSLPSSEVADEPPTLTKEEPVPLETQVVEEEEDSGAPPLKRFCVDQPTVPQTASES", "soluble on expression in E. coli": "soluble"},
      {"sequence": "MSLWYNRAMKHFDTIVIGGGPAGMMATISSSFYGQKTLLIEKNRKLGKKLAGTGGGRCNVTNNGSLDNLLAGIPGNGRFLYSVFSQFDNHDIINFFTENGVKLKVEDHGRVFPASDKSRTIIEALEKKITELGGQVATQIEIVSVKKVDDQFVLKSADQTFTCEKLIVTTGGKSYPSTGSTGFGHEIARHFKHTITDLEAAESPLLTDFPHKALQGISLDDVTLSYGKHVITHDLLFTHFGLSGPAALRMSSFVKGGEVLSLDVLPQLSEKDLVTFLEENREKSLKNALKTLLPERLAEFFVQGYPEKVKQLTEKEREQLVQSIKELKIPVTGKMSLAKSFVTKGGVSLKEINPKTLESKLVPGLHFAGEVMDINAHTGGFNITSALCTGWVAGSLHYDEGHHHHHH", "soluble on expression in E. coli": "soluble"},
      {"sequence": "MGSDKIHHHHHHMSEWDKNRWKEGRSSEYTWKGVVFMAKIMKQFLKGNDLSLSIQEIFKNELIPCTVRHLPKGEILWHDKEPHPYSYFIINGIIKLHVVTKEGREKALFYYTNGSLLGFQNLAKEKRTITTATAILPTSLYACEFSLLYTFVMNNPQYFAAFTSYIFHHMAVEAEEIVNISLYNTAERLAALLVLLAEEFPQNEQGYIEIPFNNEELATMVGACRNSVFNALSVFQKQKLIHKGRGRLVIADLPRLKEYV", "soluble on expression in E. coli": "not soluble"},
      {"sequence": "AIHAVCVLKGDSPVTGTIHLKEEGDMVTVTGEITGLTPGKHGFHVHEFGDNTNGCTSAGGHFNPHGKEHGAPEDENRHAGDLGNVVAGEDGKAVINMKDKLVKLTGPDSVIGRTLVVHVDEDDLGRGGHEQSKITGNAGGRLACGVIGITKE", "soluble on expression in E. coli": "soluble"},
      {"sequence": "MKIKSIEARNISIPLNRPIHNPAFKFTHCKYTIVTVTTDEDITGWSFSFGMHHTKAVVDELAEILVGEEIDTRRLYEKMMRTQAVRWDRGGISMRALSAIDIALWDIVGKSCGLPLYRLMGCYREEIPVYYSGGHYPVDSTKTSDMLDYLEQDIGKGLDRGFSSFKIKIGGAAVNQDLERIAFCRKLIGPYRRLMVDAFCAYEADVIIPMAKKFEQYDIGFLEEPVALDDIPGCAYVAANVSMPVALGESHYTMAQFRDIINSKAARILQPDVAYVGGITGFMQYAGIAAYHGLRLAPHWCHDLSVQLALSIPQIRELEYMDQNSALFLIQKVIENPVTAKNGIVRAPEGAGHGLVLDEKAVERYLA", "soluble on expression in E. coli": "soluble"},
      {"sequence": "MGSDKIHHHHHHMFQYRFKWSFSSDPNLSDRLFELIEVIFPGLNDLVERGRKLGASWESASTPFIRFHDDVAITHVGVLEIPMVIMGQRVTVGGIHGVATRPEFRRKGYYREVIEEVLEYCDQIYETLILTTPEPEYHLPFGFRVVEEYIFHLKCSSKGNVNGWRILDFSDNQDLALLHRLLETRAPVSHVVGVVNEKPVFFVNEGSRDLYYAEDLDLIACIKIENNRLHIFDLVATKICSLKEILGRTSEVIEEVKIYFSPDLLDVDNVQAFPYKLEDTVLMIRGQFAAVGEKFMLPRSARC", "soluble on expression in E. coli": "not soluble"},
      {"sequence": "SLPKQIDTILINIGQLLTMESSGPRAGKSMQDLHVIEDAVVGIHEQKIVFAGQKGAEAGYEADEIIDCSGRLVTPGLVDPHTHLVFGGSREKEMNLKLQGISYLDILAQGGGILSTVKDTRAASEEELLQKAHFHLQRMLSYGTTTAEVKSGYGLEKETELKQLRVAKKLHESQPVDLVSTFMGAHAIPPEYQNDPDDFLDQMLSLLPEIKEQELASFADIFTETGVFTVSQSRRYLQKAAEAGFGLKIHADEIDPLGGAELAGKLKAVSADHLVGTSDEGIKKLAEAGTIAVLLPGTTFYLGKSTYARARAMIDEGVCVSLATDFNPGSSPTENIQLIMSIAALHLKMTAEEIWHAVTVNAAYAIGKGEEAGQLKAGRSADLVIWQAPNYMYIPYHYGVNHVHQVMKNGTIVVNREGAILG", "soluble on expression in E. coli": "soluble"}
    ]}
  ]
}
